Results taken from patent publication US20180148497A1 (DUKE UNIVERSITY, published 2018).

B1: HIV-1 × CD3 Bi-Specific Diabody (A32 × CD3) (bispecific antibody)
chain 1: QSALTQPPSASGSPGQSVTISCTGTSSDVGGYNYVSWYQHHPGKAPKLIISEVNNRPSGVPDRFSGSKSGNTASLTVSGLQAEDEAEYYCSSYTDIHNFVFGGGTKLTVLGGGSGGGGEVQLVESGGGLVQPGGSLRLSCAASGFTFSTYAMNWVRQAPGKGLEWVGRIRSKYNNYATYYADSVKGRFTISRDDSKNSLYLQMNSLKTEDTAVYYCVRHGNFGNSYVSWFAYWGQGTLVTVSSGGCGGGEVAALEKEVAALEKEVAALEKEVAALEK
chain 2: QAVVTQEPSLTVSPGGTVTLTCRSSTGAVTTSNYANWVQQKPGQAPRGLIGGTNKRAPWTPARFSGSLLGGKAALTITGAQAEDEADYYCALWYSNLWVFGGGTKLTVLGGGGSGGGGQVQLQESGPGLVKPSQTLSLSCTVSGGSSSSGAHYWSWIRQYPGKGLEWIGYIHYSGNTYYNPSLKSRITISQHTSENQFSLKLNSVTVADTAVYYCARGTRLRTLRNAFDIWGQGTLVTVSSGGCGGGKVAALKEKVAALKEKVAALKEKVAALKE
notes: Two-chain DART without Fc, with an interchain disulfide and E-coil/K-coil domains; also called A32×CD3 DART
B2: HIV-1 × Fluorescein Bi-Specific Diabody (7B2 × 4420) (bispecific antibody)
chain 1: DIVMTQSPDSLAVSPGERATIHCKSSQTLLYSSNNRHSIAWYQQRPGQPPKLLLYWASMRLSGVPDRFSGSGSGTDFTLTINNLQAEDVAIYYCHQYSSHPPTFGHGTRVEIKGGGSGGGGEVKLDETGGGLVQPGRPMKLSCVASGFTFSDYWMNWVRQSPEKGLEWVAQIRNKPYNYETYYSDSVKGRFTISRDDSKSSVYLQMNNLRVEDMGIYYCTGSYYGMDYWGQGTSVTVSSGGCGGGEVAALEKEVAALEKEVAALEKEVAALEK
chain 2: DVVMTQTPFSLPVSLGDQASISCRSSQSLVHSNGNTYLRWYLQKPGQSPKVLIYKVSNRFSGVPDRFSGSGSGTDFTLKISRVEAEDLGVYFCSQSTHVPWTFGGGTKLEIKGGGSGGGGQVQLVQSGGGVFKPGGSLRLSCEASGFTFTEYYMTWVRQAPGKGLEWLAYISKNGEYSKYSPSSNGRFTISRDNAKNSVFLQLDRLSADDTAVYYCARADGLTYFSELLQYIFDLWGQGARVTVSSGGCGGGKVAALKEKVAALKEKVAALKEKVAALKE
B3: HIV-1 × Fluorescein Bi-Specific Diabody (A32 × 4420) (bispecific antibody)
chain 1: QSALTQPPSASGSPGQSVTISCTGTSSDVGGYNYVSWYQHHPGKAPKLIISEVNNRPSGVPDRFSGSKSGNTASLTVSGLQAEDEAEYYCSSYTDIHNFVFGGGTKLTVLGGGSGGGGEVKLDETGGGLVQPGRPMKLSCVASGFTFSDYWMNWVRQSPEKGLEWVAQIRNKPYNYETYYSDSVKGRFTISRDDSKSSVYLQMNNLRVEDMGIYYCTGSYYGMDYWGQGTSVTVSSGGCGGGEVAALEKEVAALEKEVAALEKEVAALEK
chain 2: DVVMTQTPFSLPVSLGDQASISCRSSQSLVHSNGNTYLRWYLQKPGQSPKVLIYKVSNRFSGVPDRFSGSGSGTDFTLKISRVEAEDLGVYFCSQSTHVPWTFGGGTKLEIKGGGSGGGGQVQLQESGPGLVKPSQTLSLSCTVSGGSSSSGAHYWSWIRQYPGKGLEWIGYIHYSGNTYYNPSLKSRITISQHTSENQFSLKLNSVTVADTAVYYCARGTRLRTLRNAFDIWGQGTLVTVSSGGCGGGKVAALKEKVAALKEKVAALKEKVAALKE
B4: HIV-1 × CD3 Bi-Specific Diabody (7B2 × CD3) (bispecific antibody)
chain 1: DIVMTQSPDSLAVSPGERATIHCKSSQTLLYSSNNRHSIAWYQQRPGQPPKLLLYWASMRLSGVPDRFSGSGSGTDFTLTINNLQAEDVAIYYCHQYSSHPPTFGHGTRVEIKGGGSGGGGEVQLVESGGGLVQPGGSLRLSCAASGFTFSTYAMNWVRQAPGKGLEWVGRIRSKYNNYATYYADSVKGRFTISRDDSKNSLYLQMNSLKTEDTAVYYCVRHGNFGNSYVSWFAYWGQGTLVTVSSGGCGGGEVAALEKEVAALEKEVAALEKEVAALEK
chain 2: QAVVTQEPSLTVSPGGTVTLTCRSSTGAVTTSNYANWVQQKPGQAPRGLIGGTNKRAPWTPARFSGSLLGGKAALTITGAQAEDEADYYCALWYSNLWVFGGGTKLTVLGGGGSGGGGQVQLVQSGGGVFKPGGSLRLSCEASGFTFTEYYMTWVRQAPGKGLEWLAYISKNGEYSKYSPSSNGRFTISRDNAKNSVFLQLDRLSADDTAVYYCARADGLTYFSELLQYIFDLWGQGARVTVSSGGCGGGKVAALKEKVAALKEKVAALKEKVAALKE
notes: Two-chain DART without Fc; also called 7B2×CD3 DART

Tests used:
[1] = target: T1, HIV-1 Env, HXBc2, subtype B, expressed on Jurkat 522-F/Y cells (HIV-1 (HXBc2, subtype B), UniProt P04578 33-856); test: cell-based or functional assay
[2] = target: T2, M.ConS gp140 CFI (HIV-1 group M consensus Env protein); test: SPR (BIAcore 3000), Env protein over DART captured on immobilized CD3
T2 construct: also called M.ConS gp140ΔCFI

[3] = target: T2, M.ConS gp140 CFI (HIV-1 group M …); test: SPR (BIAcore 3000), M.ConS gp140 over DART captured on immobilized CD3ε/δ, 1:1 Langmuir global fit
[4] = target: T3, human CD3 on cells (primary human T cells; Jurkat 522-F/Y cells) (human, UniProt P07766 23-207); test: flow cytometry on primary human T cells (Env- CD3+), DART at 4 µg/mL, biotinylated anti-EK antibody and streptavidin-PE [panel D. Human T Cells]
T3 construct: whole, on cells; The other chains of the CD3 complex were also present on the cells; also called CD3ε; human CD3+ T cells

[5] = target: T3, human CD3 on cells (primary human T …); test: flow cytometry on primary human T cells (Env- CD3+), biotinylated anti-EK antibody and streptavidin-PE [panel D. Human T Cells]
[6] = target: T1, HIV-1 Env, HXBc2, subtype B, expressed …; test: flow cytometry on Jurkat-522 F/Y cells (Env+ CD3+), biotinylated anti-EK antibody and streptavidin-PE [panel F. Jurkat-522 F/Y Cells]
[7] = target: JR-FL gp140 CF (HIV-1 Env protein) (HIV-1 (JR-FL)); test: SPR (BIAcore 3000), Env protein over DART captured on immobilized CD3
[8] = target: JR-FL gp140 CF (HIV-1 Env protein) (HIV-1 (JR-FL)); test: SPR (BIAcore 3000), JR-FL gp140 over DART captured on immobilized CD3ε/δ, 1:1 Langmuir global fit

T3 sequence (P07766 23-207): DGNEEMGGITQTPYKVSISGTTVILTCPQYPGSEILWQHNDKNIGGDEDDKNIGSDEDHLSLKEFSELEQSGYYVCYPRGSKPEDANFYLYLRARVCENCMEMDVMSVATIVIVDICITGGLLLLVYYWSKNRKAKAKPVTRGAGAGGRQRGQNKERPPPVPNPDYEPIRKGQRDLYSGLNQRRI

Binder | EC50 of redirected T-cell killing of Env+ Jurkat 522-F/Y GF cells, E:T 10:1, 48 hours, LUM assay [1] [ng/mL] | EC50 of redirected T-cell killing of Env+ Jurkat 522-F/Y cells, E:T 10:1, 48 hours, LDH release assay [1] [ng/mL] | binding result [4] | binding result [5] | also measured
B1 | 0.172 | 0.23 | binds | – | Kd [2]: 47.7 nM; koff [3]: 0.00081 s⁻¹; kon [3]: 17000 M⁻¹ s⁻¹
B2 | – | – | – | no binding (tested: 4 µg/mL (single concentration)) | binding result [6]: no binding (tested: 4 µg/mL (single concentration))
B3 | – | – | – | no binding (tested: 4 µg/mL (single concentration)) | –
B4 | 0.147 | 0.16 | binds | – | Kd [7]: 15.1 nM; koff [8]: 0.00031 s⁻¹; kon [8]: 20000 M⁻¹ s⁻¹
